For the assay, the target named is endogenous PTEN-induced kinase 1 (PINK1) (human (endogenous in Huh7)) (UniProt Q9BXM7). As to the kind of experiment: proximity ligation.
Sequence of UniProt Q9BXM7 (Q9BXM7 78-581): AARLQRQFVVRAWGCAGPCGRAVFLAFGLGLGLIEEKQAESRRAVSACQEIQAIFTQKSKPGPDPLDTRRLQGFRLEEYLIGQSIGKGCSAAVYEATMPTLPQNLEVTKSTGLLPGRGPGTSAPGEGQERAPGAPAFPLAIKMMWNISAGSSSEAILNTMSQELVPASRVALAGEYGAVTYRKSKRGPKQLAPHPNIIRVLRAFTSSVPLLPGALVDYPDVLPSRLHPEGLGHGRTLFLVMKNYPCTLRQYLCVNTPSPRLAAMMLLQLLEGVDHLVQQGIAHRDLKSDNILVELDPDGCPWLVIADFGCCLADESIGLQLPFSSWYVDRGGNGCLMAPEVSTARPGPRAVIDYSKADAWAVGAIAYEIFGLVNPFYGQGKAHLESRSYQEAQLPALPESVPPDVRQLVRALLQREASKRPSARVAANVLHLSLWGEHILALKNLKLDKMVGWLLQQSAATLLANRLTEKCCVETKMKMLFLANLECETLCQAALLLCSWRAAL

In turn, “JEV-NS4A made in JEV-infected Huh7 cells (from UniProt P27395 2124-2249) (natural protein)” had a fluorescent dots per cell (PLA) (fluorescent dots per cell) of 20.

For the origin of these results see paper PMC9241661.
